B1: mRNA-splicing (parent)
chain: AGUUGCUGCUGGGAGCUCCAGCACAGUGAAAUGGACAGAAGGGCAGAGCAA

Variants of: B1
Assay: exon inclusion enrichment index; higher = more inclusion; WT1 exon 5 minigene, HEK293

Variant | exon inclusion enrichment index
C6A U7A C9A U10A G26U U27A | 0.264
C6A U7A C9A U10A G26U U27C | 2.22
C6A U7A C9A U10A G34C A35G | 0.484
C6A U7A C9A U10A G34C A35C | 0.0588
C6A U7A C9A U10A G34C A35U | 0.104
C6A U7A C9A U10A G26A U27C | 2.37
C6A U7A C9A U10A G26A U27G | 1.32
C6A U7A C9A U10A G26A U27A | 0.813
C6A U7A C9A U10A C16U U17G | 0.212
C6A U7A C9A U10A C16U U17A | 0.291
C6A U7A C9A U10A C16U U17C | 0.225
C6A U7A C9A U10A A40U G41A | 0.0256
C6A U7A C9A U10A A40U G41U | 0.373
C6A U7A C9A U10A A40U G41C | 1.33
C6A U7A C9A U10A G21A C22A | 0.228
C6A U7A C9A U10A G21A C22G | 0.568
C6A U7A C9A U10A G21A C22U | 0.235
C6A U7A C9A U10A C19U A20G | 0.121
C6A U7A C9A U10A C19U A20C | 0.579
C6A U7A C9A U10A C19U A20U | 0.19
C6A U7A C9A U10A G11A G12C | 2.24

Variant | exon inclusion enrichment index
C6A U7A C9A U10A G11A G12U | 1.67
C6A U7A C9A U10A G11A G12A | 1.79
C6A U7A C9A U10A A37G G38A | 0.801
C6A U7A C9A U10A A37G G38C | 0.984
C6A U7A C9A U10A A37G G38U | 0.29
C6A U7A C9A U10A C22G A23G | 0.212
C6A U7A C9A U10A C22G A23C | 0.321
C6A U7A C9A U10A C22G A23U | 0.0793
C6A U7A C9A U10A A45C G46A | 0.367
C6A U7A C9A U10A A45C G46C | 0.542
C6A U7A C9A U10A A45C G46U | 0.191
C6A U7A C9A U10A C19A A20G | 0.0532
C6A U7A C9A U10A C19A A20C | 0.41
C6A U7A C9A U10A C19A A20U | 0.195
C6A U7A C9A U10A C19G | 0.576
C6A U7A C9A U10A C19U | 0.0565
C6A U7A C9A U10A C19A | 0.348
C6A U7A C9A U10A G26A | 1.08
C6A U7A C9A U10A G26C | 1.1
C6A U7A C9A U10A G26U | 0.794
C6A U7A C9A U10A G12A G13U | 0.801

Variant | exon inclusion enrichment index
C6A U7A C9A U10A G12A G13C | 1.94
C6A U7A C9A U10A G12A G13A | 1.6
C6A U7A C9A U10A G15C C16U | 0.63
C6A U7A C9A U10A G15C C16A | 0.525
C6A U7A C9A U10A G15C C16G | 0.812
C6A U7A C9A U10A G33A | 0.0584
C6A U7A C9A U10A G33C | 1.04
C6A U7A C9A U10A G33U | 0.2
C6A U7A C9A U10A C22U A23G | 0.694
C6A U7A C9A U10A C22U A23U | 0.226
C6A U7A C9A U10A C22U A23C | 0.267
C6A U7A C9A U10A G26C U27C | 2.32
C6A U7A C9A U10A G26C U27G | 2.09
C6A U7A C9A U10A G26C U27A | 0.842
C6A U7A C9A U10A G38A A39G | 0.862
C6A U7A C9A U10A G38A A39C | 0.579
C6A U7A C9A U10A G38A A39U | 0.0204
C6A U7A C9A U10A G33A G34A | 0.0545
C6A U7A C9A U10A G33A G34C | 0.0943
C6A U7A C9A U10A G33A G34U | 0.0565
C6A U7A C9A U10A G33U G34A | 0.0617

Variant | exon inclusion enrichment index
C6A U7A C9A U10A G33U G34U | 0.0929
C6A U7A C9A U10A G33U G34C | 0.221
C6A U7A C9A U10A A23G C24U | 0.189
C6A U7A C9A U10A A23G C24G | 1.58
C6A U7A C9A U10A A23G C24A | 1.85
C6A U7A C9A U10A C18A C19A | 0.0959
C6A U7A C9A U10A C18A C19G | 0.0285
C6A U7A C9A U10A C18A C19U | 0.0166
C6A U7A C9A U10A A37C G38U | 0.426
C6A U7A C9A U10A A37C G38A | 0.719
C6A U7A C9A U10A A37C G38C | 0.896
C6A U7A C9A U10A G15A C16A | 0.363
C6A U7A C9A U10A G15A C16U | 0.351
C6A U7A C9A U10A G15A C16G | 0.366
C6A U7A C9A U10A G13C A14G | 1.42
C6A U7A C9A U10A G13C A14U | 1.56
C6A U7A C9A U10A G13C A14C | 1.58
C6A U7A C9A U10A G38A | 0.314
C6A U7A C9A U10A C36G A37C | 0.129
C6A U7A C9A U10A C36G A37U | 0.216
C6A U7A C9A U10A C36G A37G | 0.0922

Source: the RNAGym collection of RNA variant scans (doi:10.1101/gr.219683.116)
